Results reported in paper PMC12694110, “A Multidrug and Toxic Compound Extrusion Transporter, RgMATE6, Facilitates Vacuolar Transport of Acteoside in Rehmannia glutinosa” (Plants, 2025).

How the values were obtained:
[1] = substrate: C[C@@H]1O[C@@H](O[C@@H]2[C@@H](O)[C@H](OCCc3ccc(O)c(O)c3)O[C@H](CO)[C@H]2OC(=O)/C=C/c2ccc(O)c(O)c2)[C@H](O)[C@H](O)[C@H]1O; assay: uptake into vacuolar membrane vesicles, HPLC, Lineweaver-Burk; format: biochemical, Rehmannia glutinosa; conditions: vesicles from transfected N. benthamiana protoplasts, 25 mM Tris-MES pH 8.0, 0.4 M sorbitol, 0.1% BSA, 25 °C, 20 min, substrate 20–120 μM
[2] = substrate: C[C@@H]1O[C@@H](O[C@@H]2[C@@H](O)[C@H](OCCc3ccc(O)c(O)c3)O[C@H](COC(=O)/C=C/c3ccc(O)c(O)c3)[C@H]2O)[C@H](O)[C@H](O)[C@H]1O; assay: as above; format: biochemical, Rehmannia glutinosa; conditions: vesicles from transfected N. benthamiana protoplasts, 25 mM Tris-MES pH 8.0, 0.4 M sorbitol, 0.1% BSA, 25 °C, 20 min, substrate 20–120 μM

B1: RgMATE6 (Rehmannia glutinosa) (protein)
chain: MEDNSKQPLLSYEEEEEEDQVPDLVSVPSRFSFQRLSNFSFFSSFVADDEDIAPIETFSEFMSAFKDESGKLWFLAGPAIFTSLCQYSLGAFTQTFAGHVGTLELAAFSSVIAGLSLGVMLGMGSAVETLCGQAFGAGQHDMLGIYLQRSWIILLATGFILMFLYIFALPFLLVIGQTESISRVAGKLALWMIPQLFAYALNFPTAKFLQAQSKIMAMAWISAAGLGLHVLFSWLLMLKLGWGMAGGAAVLDGSWWFIVIAQLIYIFSGTCGKAWPGFSLRAFSNLWGFVRLSVASAVMMCLETWYFMALVLFAGYLKDAEVAVAALSVCTNILGWTNTIAVGFNAAISVRVSNELGASRPRTAKFSVVVMVISAFLIGLIVSILLLIFQDQYPSLFSDSLDVKQVVYELTPLLAFSIVVNSIQPALSGVAIGAGWQALIAYVNIVCYYVFGVPLGLILGYPLNMGVKGIWYGMVAGTVLQTLILFWIVYRTDWNKEASIAAKRIKYWRGEAEAAKSKGLGEIK
notes: full-length ORF (524 residues, 12 TM helices), C-terminal GFP fusion (pBI121-RgMATE6-GFP), transiently expressed in Nicotiana benthamiana mesophyll protoplasts; vacuolar membrane vesicles
**Q.** For B1, which Km [1] is on record?
**A.** 35.59 µM

**Q.** What about the Km [2] of the same protein?
**A.** 121.98 µM
